Measured values: paper PMC4536996, “Molecular mechanisms of human IRE1 activation through dimerization and ligand binding” (Oncotarget, 2015)

Target: the molecule itself
Test: crystal structure; apo-hIRE1 (no nucleotide), hanging-drop vapor diffusion, 18-20% PEG3350, 0.2 M sodium malonate, Bis-Trispropane pH 6.5, 18°C; 2 molecules in the asymmetric unit

B1: cytoplasmic region of human IRE1 (residues 547-977) (domain or fragment, UniProt O75460 547-977, looked up)
chain: GSSPSLEQDDGDEETSVVIVGKISFCPKDVLGHGAEGTIVYRGMFDNRDVAVKRILPECFSFADREVQLLRESDEHPNVIRYFCTEKDRQFQYIAIELCAATLQEYVEQKDFAHLGLEPITLLQQTTSGLAHLHSLNIVHRDLKPHNILISMPNAHGKIKAMISDFGLCKKLAVGRHSFSRRSGVPGTEGWIAPEMLSEDCKENPTYTVDIFSAGCVFYYVISEGSHPFGKSLQRQANILLGACSLDCLHPEKHEDVIARELIEKMIAMDPQKRPSAKHVLKHPFFWSLEKQLQFFQDVSDRIEKESLDGPIVKQLERGGRAVVKMDWRENITVPLQTDLRKFRTYKGGSVRDLLRAMRNKKHHYRELPAEVRETLGSLPDDFVCYFTSRFPHLLAHTYRAMELCSHERLFQPYYFHEPPEPQPPVTPDAL
In the case of B1, the “stoichiometry N” value is reported as 2.
